Measurements taken from patent US11312781B2, “Antigen binding molecules that bind LIGHT” (Capella Bioscience Ltd., priority 2018, dated 2022).

Columns and labels:
[1] = molecular target: T1, native trimeric LIGHT (Homo sapiens, UniProt O43557, K214E); assay: Binding ratio of mAbs bound to LIGHT by native mass spectrometry; details: LIGHT incubated 1:5 molar ratio (protein:antibody)
T1 construct: amino acids 74-240 LIGHT (R&D Systems, 664-LI-025); purchased R&D Systems 664-LI-025
Protocol: The LIGHT protein (R&D Systems 664-LI-025) was solubilised in PBS buffer at a final concentration of 4 μM, whereas the mAbs were maintained at 20 μM in PBS. The samples were buffer exchanged into ammonium acetate pH 7.4 at different concentrations via a column with a cut-off of 40 kDa prior to mass spectrometry optimisation. […] Samples were stored at 4° C. and were used within one week. The antibodies were diluted to 1 μM prior to MSanalysis. For complex formation the LIGHT protein was incubated with each antibody separately in 1:5 ratio on ice and native mass measurements were performed 30 min after incubation.
Nano electrospray ionization measurements were performed using a Q Exactive hybrid quadrupole-Orbitrap mass spectrometer (Thermo Fisher Scientific) modified for the transmission and detection of high m/z ions. […] Elevated pressure was applied in the front optics and mass spectra were recorded at optimized collision energy. […] Data were analysed with Xcaliber software and deconvoluted manually.
Native mass spectroscopy was utilised to determine the ratio of mAb bound to native trimeric LIGHT. The measured mass of 3B04 (IgG4) was 147256±0.7 Da and the F19 anti-LIGHT mAb, (IgG4 mAb from EP2292663) was 147364±6.6 Da. […] Two major populations of the light protein were recorded with measured masses of 68 kDa and 71 kDa. […]

[2] = molecular target: T2, wild type and mutated membrane LIGHT (Homo sapiens, UniProt O43557, T191A); assay: Alanine scanning mutagenesis of membrane LIGHT and flow cytometry (HEK293FF cells); format: binding; details: aa mutation T191A, SEQ ID NO. 138
T2 construct: The full length LIGHT gene was synthesized by GeneArt (ThermoFisher Scientific); expressed in transfected cells; host or cells: HEK293FF, transient, pcDNA 3.1(+)
T2 sequence (O43557 whole entry T191A): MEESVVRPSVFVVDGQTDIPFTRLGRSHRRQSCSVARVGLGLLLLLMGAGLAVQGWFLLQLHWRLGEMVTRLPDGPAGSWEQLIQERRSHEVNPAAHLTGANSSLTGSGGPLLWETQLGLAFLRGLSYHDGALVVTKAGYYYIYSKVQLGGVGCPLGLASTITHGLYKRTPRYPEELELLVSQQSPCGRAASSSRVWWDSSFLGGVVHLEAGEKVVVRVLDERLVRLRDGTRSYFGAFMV
From the text: (§1) The full length LIGHT gene was synthesized by GeneArt (ThermoFisher Scientific) and cloned into the mammalian expression vector pcDNA 3.1(+). The following Ala mutations were introduced into the LIGHT gene: 30 single amino acid alanine substitutions from F57A to E86A; 2 single amino acid alanine substitutions; G188A, R189A; one serine substitution, A190S; 17 single amino acid alanine substitutions; T191A to V207A and 10 four amino acid alanine substitutions, 60-63, 64-67, 68-71, 72-75, 76-79, 80-83, 84-87, 88-91, 92-95 and 96-99. Constructs were reconstituted according to manufacture instructions, using DEPC-treated and sterile filtered water. Competent TOP10 E. coli cells were transformed with 100 ng of each construct and a single colony from each construct was picked and used to inoculate 10 ml of LB/carb100/glu2% medium and grown overnight at 37° C., 200 rpm. The extraction of the construct DNA was performed using the Qiagen QIAprep Spin Miniprep Kit (250) and the concentration was determined by measuring the O.D. at 260 nm in a spectrophotometer.
(§2) HEK293FF cells were cultured in Freestyle™293 expression medium (ThermoFisher scientific cat. no. 12338018) supplemented with 2 mM L-Glutamine. The day of transfection the cells were seeded in a 24-well plate at 0.6×10^6 cells/well. Lipofectamine 2000 (ThermoFisher scientific), 3 μl, was mixed with 50 μl OptiMEM medium (GIBCO) and then added to 50 μl Opti-MEM medium containing 3 ug plasmid DNA and incubated for 20 min at RT to form DNA-Lipofectamine 2000 complexes which were then added to the HEK293FF cells and incubated at 37° C., 5% CO2 for 24 hours. For each construct, in duplicate, 0.60×10^6 cells/well were used in a 96 well round bottom plate. Cells were centrifuged for 3 minutes at 300×g at 4° C., the supernatant discarded and the cells washed with 150 μl FACS buffer (0.5% FBS in phosphate buffered saline). This process was repeated 3 times. For each construct, […] cells/well were incubated with anti-LIGHT antibodies at the EC50 concentration and with positive controls of anti-LIGHT mAb MAB664 (R&D Systems), mAb F19 (EP2292663) or LTBR-Fc (R&D Systems), in a final volume of 50 μl/well for 30 min at 4° C., with shaking. The wells were washed 3 times as above and 50 μl/well of goat anti-human IgG FITC (1:1500 dilution in FACS buffer, SIGMA F9512-2ML) or goat anti-mouse APC (1/500 dilution in FACS buffer, BDBioscience 550826), as appropriate, was added to the wells and incubated for 30 min at 4° C. protected from the light, with shaking. The cells were then washed as above, resuspended in 100 μl of FACS buffer and binding of the antibodies to the constructs was measured using flow cytometry and a total of 10,000 cells were acquired for each sample. Controls of buffer and secondary antibody only as well as HEK293FF non transfected cells were also used.
(§3) All of the mAbs of this invention show a similar profile in that their epitope is located at amino acids 188-197 of LIGHT. […] The epitope of the mAbs of this invention defined by alanine scanning mutagenesis are residues 188-197 of LIGHT. This is visually depicted in FIG. 8 utilising a 3D visualisation of the LIGHT trimer from the crystal structure of LIGHT from Liu et al. (Structure 22: 1252-62; 2014). This would result in the mAbs binding to the “tip” of the LIGHT trimer and explaining the 1:1 binding. The impact of this epitope would result in […] less dosing of mAb 3B04 being required to neutralise membrane LIGHT compared to, for example, mAbs F19 and F23 (of EP2292663) which bind both soluble and membrane LIGHT equally and bind LIGHT in the ratio 3:1.

[3] = molecular target: T3, wild type and mutated membrane LIGHT (Homo sapiens, UniProt O43557, V196A); assay: as above; format: binding; details: aa mutation V196A, SEQ ID NO. 143
T3 construct: The full length LIGHT gene was synthesized by GeneArt (ThermoFisher Scientific); expressed in transfected cells; host or cells: HEK293FF, transient, pcDNA 3.1(+)
T3 sequence (O43557 whole entry V196A): as the sequence (O43557 whole entry T191A) above, with A191T, V196A counted along it
From the text: as §1, §2, §3

[4] = molecular target: T4, wild type and mutated membrane LIGHT (Homo sapiens, UniProt O43557, W198A); assay: as above; format: binding; details: aa mutation W198A, SEQ ID NO. 145
T4 construct: The full length LIGHT gene was synthesized by GeneArt (ThermoFisher Scientific); expressed in transfected cells; host or cells: HEK293FF, transient, pcDNA 3.1(+)
T4 sequence (O43557 whole entry W198A): as the sequence (O43557 whole entry T191A) above, with A191T, W198A counted along it
From the text: as §1, §2, §3

T1 sequence (O43557 74-240 K214E): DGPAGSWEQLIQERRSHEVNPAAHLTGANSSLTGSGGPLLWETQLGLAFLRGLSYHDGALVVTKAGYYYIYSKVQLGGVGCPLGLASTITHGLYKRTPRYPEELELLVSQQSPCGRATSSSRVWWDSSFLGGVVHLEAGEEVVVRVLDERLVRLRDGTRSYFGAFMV

Row | Molecule | Stoichiometry of mAb bound to native trimeric LIGHT (antibody:LIGHT trimer) [1] | Binding to membrane LIGHT construct as a percentage of the WT binding [2] [%] | Binding to membrane LIGHT construct as a percentage of the WT binding [3] [%] | Binding to membrane LIGHT construct as a percentage of the WT binding [4] [%]
1 | 3B04: parental mouse anti-membrane LIGHT antibody, VL SEQ ID NO 1, VH SEQ ID NO 5; tested as chimeric human IgG4 mAb (antibody, listed as Homo sapiens, V domains shown) VH: QVQLQQPGAELVRPGASVTLSCKASGYTFTDYEMHWVKQTPVHGLEWIGEIDPETGDTAYSQKFKGKATLTADKSSSTAYMEFRSLTSEDSAVYYCSRETDYFFDYWGQGTTLTVSS VL: DIQMTQTPASLSASVGETVTITCGASENIYGALNWYQRKQGKSPQLLIYGATNLADGMSSRFSGSGSGRQYSLKISSLHPDDFATYYCQNVLTTPWTFGGGTKLEIKR | one antibody per one LIGHT protein | – | – | –
2 | 3D12: parental mouse anti-membrane LIGHT antibody, VL SEQ ID NO 41, VH SEQ ID NO 45; tested as chimeric human IgG4 mAb (antibody, listed as Homo sapiens, V domains shown) VH: QVQLQQPGAELVRPGASVTLSCKASDYTFTDSEIHWVKQTPVHGLEWIGEIDPETGGTAYNQKFKGKATLTADKSSSTAYMELRSLTSEDSAVYYCSRETDYFFDYWGQGTTLTVSS VL: DIQMTQSPASLSASVGETVTITCGASENIYGALNWYQRKQGKSPQLLIYGATNLADGMSSRFSGSGSGRQYSLKISSLHPDDVATYYCQNVLSTPWTFGGGTKLEIKR | – | 3 | 78 | 86
